The text below walks through data of publication PMC4256255 (PLoS Pathogens, 2014).

This data set concerns the molecule itself. Nature of the data set: SEC-MALS.

One may read the stoichiometry N as the number of molecules, sites or subunits per partner or assembly.

B1: D8 Δ262 construct (amino acids 1–261, lacking Cys 262) (domain or fragment)
chain: MPQQLSPINIETKKAISNARLKPLDIHYNESKPTTIQNTGKLVRINFKGGYISGGFLPNEYVLSSLHIYWGKEDDYGSNHLIDVYKYSGEINLVHWNKKKYSSYEEAKKHDDGLIIISIFLQVLDHKNVYFQKIVNQLDSIRSANTSAPFDSVFYLDNLLPSKLDYFTYLGTTINHSADAVWIIFPTPINIHSDQLSKFRTLLSSSNHDGKPHYITENYRNPYKLNDDTQVYYSGEIIRAATTSPARENYFMRWLSDLRET
Regarding B1, the “stoichiometry N” value came out at 6.
